Laboratory results from PMC9774280, “Colon-Targeted eNAMPT-Specific Peptide Systems for Treatment of DSS-Induced Acute and Chronic Colitis in Mouse” (Antioxidants, 2022).

How the values were obtained:
[1] = molecular target: fluorescently labeled TLR4 (recombinant) (UniProt O00206 24-839, fluorescently labeled); assay: other fluorescence titration; fluorescently labeled TLR4 or CYBB titrated with unlabeled NAMPT; recombinant proteins; Kd by curve fit analysis; details: both partners purified
[2] = molecular target: fluorescently labeled CYBB (recombinant) (UniProt P04839 1-570, fluorescently labeled); assay: as above; details: both partners purified
Sequence of fluorescently labeled CYBB (recombinant) (P04839 whole entry): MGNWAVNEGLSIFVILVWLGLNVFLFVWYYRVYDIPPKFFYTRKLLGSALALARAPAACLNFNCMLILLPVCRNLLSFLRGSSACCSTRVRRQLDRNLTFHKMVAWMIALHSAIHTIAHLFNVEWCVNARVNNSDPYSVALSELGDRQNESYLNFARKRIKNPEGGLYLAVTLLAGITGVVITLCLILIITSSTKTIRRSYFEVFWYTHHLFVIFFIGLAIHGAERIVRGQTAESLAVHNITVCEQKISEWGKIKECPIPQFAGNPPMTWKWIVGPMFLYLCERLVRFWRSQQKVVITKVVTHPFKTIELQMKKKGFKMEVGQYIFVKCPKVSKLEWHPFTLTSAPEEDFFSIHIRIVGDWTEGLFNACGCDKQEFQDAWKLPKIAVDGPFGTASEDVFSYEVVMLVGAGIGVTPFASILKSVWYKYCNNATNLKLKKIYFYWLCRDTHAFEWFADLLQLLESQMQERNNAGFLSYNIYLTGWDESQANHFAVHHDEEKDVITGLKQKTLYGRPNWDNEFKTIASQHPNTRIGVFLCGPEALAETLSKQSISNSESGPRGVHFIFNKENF

Kd [1]: 219 nM
Kd [2]: 896 nM
B1: recombinant NAMPT protein (natural protein, UniProt P43490 1-491, looked up)
chain: MNPAAEAEFNILLATDSYKVTHYKQYPPNTSKVYSYFECREKKTENSKLRKVKYEETVFYGLQYILNKYLKGKVVTKEKIQEAKDVYKEHFQDDVFNEKGWNYILEKYDGHLPIEIKAVPEGFVIPRGNVLFTVENTDPECYWLTNWIETILVQSWYPITVATNSREQKKILAKYLLETSGNLDGLEYKLHDFGYRGVSSQETAGIGASAHLVNFKGTDTVAGLALIKKYYGTKDPVPGYSVPAAEHSTITAWGKDHEKDAFEHIVTQFSSVPVSVVSDSYDIYNACEKIWGEDLRHLIVSRSTQAPLIIRPDSGNPLDTVLKVLEILGKKFPVTENSKGYKLLPPYLRVIQGDGVDINTLQEIVEGMKQKMWSIENIAFGSGGGLLQKLTRDLLNCSFKCSYVVTNGLGINVFKDPVADPNKRSKKGRLSLHRTPAGNFVTLEEGKGDLEEYGQDLLHTVFKNGKVTKSYSFDEIRKNAQLNIELEAAHH
notes: recombinant NAMPT protein added to BMDMs and precipitated with anti-His; The His tag is known only from the anti-His precipitation; also called rNAMPT; eNAMPT; source: recombinant
